Changes are numbered by the printed parent chain. Numbers in names are those of the source.
B1: T706W: TP-DNAP1 variant (protein)
chain: MDYKDKALNDLRNVYADFDSLPLDFRQILIKDRATLLQKEDVEKKILERQEDAKKYAEYLKQSEIPERISLPNIKRHKGVSISFEETSEDMVLEPRPFIFDGLNIRCFRRETIFSLKNKILNMVKESSSFKNVSRQSVSFMYFKIFNKGKVIASTKSVNIYEDKIDERLEDLCNNFDDVLKKIIDVTYGYESLFVSETYSYVIFYAKSIYFPQPRCVNNWGNNIPNILTFDSFKLFTANKNNVSCIKQCSRFLWQKDFNTLEEMIEYKNGNICIVTPQLHINDVRDIKSFNDIRLYSESPIKTFSVIDNTITYLFYFKEHLGVIFNITKSRHDRRVTKFSPLSKFSDVKNITVCFDIESYFDPEKESNQVNIPFICCASIIYNKVIGNIVDFEGRDCVAQMIEYVVDICGELNISSVELIAHNGGGYDFHYILSSMYNPAAIKNILIRNNSFISFNFAHDGVKFSVKDSYSFLLCSLANASKAFLNEETFKKTDFPHHDLKTADDLYKVYKEWSSVNTEINHVVEKEKLLITSEHIVNFTKNDKSKTLIEWSKDYCRNDVLVLSKVWLEFKNAVEDIFNCELVDQTMTLAGLSYKLFQANMPFDVELRHPNKEDYFNMREALIGGRCISVNGIYKDVLCLDVKSLYPASMAFYDQPYGSFKRVSSRPKDELGIYYVRVTPNRNNKSNFFPIRSHNKITYNNFEESWYIAWYTNVDIDIGLSEGHNIEYIPFDSYGNIGYSWSKKGKIFEKYIKDVLYKLKIKYEKQNNKVKRNVIKIIMNSLWGKFAQKWVNFEYFIKSEDDIDFESEEAYKIWDTDFMLIKKIKESTYSSKPIQNGVFTLSWARYHMKSIWDAGAKEGAECIYSDTDSIFVHKEHFKKNAKFMLNGLKVPIIGSEVGQLELECEFDKLLCAGKKQYMGFYTYFQDGKPCIKEKKRFKGIPSNYIIPELYAHLLSGADKEAKIQFLKFRREWGSVKGYIENKTVKAT
B2: I708E: TP-DNAP1 variant (protein)
chain: B1 chain with W706T, I708E
B3: I729F: TP-DNAP1 variant (protein)
chain: B1 chain with W706T, I729F
B4: A709N: TP-DNAP1 variant (protein)
chain: B1 chain with W706T, A709N
B5: I301C: TP-DNAP1 variant (protein)
chain: B1 chain with I301C, W706T
B6: I708A: TP-DNAP1 variant (protein)
chain: B1 chain with W706T, I708A
B7: I301M: TP-DNAP1 variant (protein)
chain: B1 chain with I301M, W706T
B8: K959A: TP-DNAP1 variant (protein)
chain: B1 chain with W706T, K959A
B9: I708T: TP-DNAP1 variant (protein)
chain: B1 chain with W706T, I708T
B10: I301K: TP-DNAP1 variant (protein)
chain: B1 chain with I301K, W706T
B11: S733E: TP-DNAP1 variant (protein)
chain: B1 chain with W706T, S733E
B12: E298F: TP-DNAP1 variant (protein)
chain: B1 chain with E298F, W706T
B13: I824E: TP-DNAP1 variant (protein)
chain: B1 chain with W706T, I824E
B14: E298Y: TP-DNAP1 variant (protein)
chain: B1 chain with E298Y, W706T
B15: S733N: TP-DNAP1 variant (protein)
chain: B1 chain with W706T, S733N
B16: I708M: TP-DNAP1 variant (protein)
chain: B1 chain with W706T, I708M
B17: Y829F: TP-DNAP1 variant (protein)
chain: B1 chain with W706T, Y829F
B18: I729W: TP-DNAP1 variant (protein)
chain: B1 chain with W706T, I729W
B19: I301V: TP-DNAP1 variant (protein)
chain: B1 chain with I301V, W706T
B20: T303H: TP-DNAP1 variant (protein, listed as Kluyveromyces lactis)
chain: B1 chain with T303H, W706T
B21: K962Q: TP-DNAP1 variant (protein)
chain: B1 chain with W706T, K962Q
B22: K302A: TP-DNAP1 variant (protein)
chain: B1 chain with K302A, W706T
B23: I301L: TP-DNAP1 variant (protein)
chain: B1 chain with I301L, W706T
B24: S831T: TP-DNAP1 variant (protein)
chain: B1 chain with W706T, S831T
B25: Y829I: TP-DNAP1 variant (protein)
chain: B1 chain with W706T, Y829I
B26: S733Q: TP-DNAP1 variant (protein)
chain: B1 chain with W706T, S733Q
B27: E298V: TP-DNAP1 variant (protein)
chain: B1 chain with E298V, W706T
B28: I708V: TP-DNAP1 variant (protein)
chain: B1 chain with W706T, I708V
B29: K959M: TP-DNAP1 variant (protein)
chain: B1 chain with W706T, K959M
B30: E298S: TP-DNAP1 variant (protein)
chain: B1 chain with E298S, W706T
B31: I301S: TP-DNAP1 variant (protein)
chain: B1 chain with I301S, W706T
B32: I708L: TP-DNAP1 variant (protein)
chain: B1 chain with W706T, I708L
B33: S733R: TP-DNAP1 variant (protein)
chain: B1 chain with W706T, S733R
B34: E298I: TP-DNAP1 variant (protein)
chain: B1 chain with E298I, W706T
B35: I301E: TP-DNAP1 variant (protein)
chain: B1 chain with I301E, W706T
B36: I301Y: TP-DNAP1 variant (protein)
chain: B1 chain with I301Y, W706T
B37: E298P: TP-DNAP1 variant (protein)
chain: B1 chain with E298P, W706T
B38: I729V: TP-DNAP1 variant (protein)
chain: B1 chain with W706T, I729V
B39: I301A: TP-DNAP1 variant (protein)
chain: B1 chain with I301A, W706T

The molecules below were run on p1 (assay: p1 copy number by p1-encoded mKate2 fluorescence). Settings: OR-Y24, measured in triplicate.
Assay type: cell-based, S. cerevisiae
In short: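 Steps: transform TP-DNAP1 variant into OR-Y24; passage until w.t. p1 displaced; dilute 1:10,000 and grow to saturation in triplicate; measure p1-encoded mKate2 fluorescence; convert to copy number via linear qPCR-based calibration. Four high-copy variants were checked directly by qPCR.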

Point of comparison: B25, “Mean fold-increase over w.t. (p1 copy number)” value 1.86 fold. Against it:
- B1 — lower, 1.73 fold
- B2 — higher, 2.41 fold
- B3 — lower, 1.7 fold
- B4 — higher, 2.01 fold
- B5 — higher, 2.46 fold
- B6 — higher, 2.55 fold
- B7 — higher, 2.76 fold
- B8 — lower, 1.55 fold
- B9 — higher, 2.41 fold
- B10 — higher, 2.71 fold
- B11 — higher, 2.06 fold
- B12 — lower, 1.74 fold
- B13 — higher, 2.12 fold
- B14 — higher, 2.17 fold
- B15 — the same, 1.86 fold
- B16 — higher, 2.32 fold
- B17 — higher, 2.46 fold
- B18 — higher, 1.97 fold
- B19 — higher, 2.53 fold
- B20 — higher, 2.3 fold
- B21 — lower, 1.56 fold
- B22 — higher, 1.88 fold
- B23 — higher, 2.94 fold
- B24 — lower, 1.71 fold
- B26 — the same, 1.86 fold
- B27 — higher, 2.64 fold
- B28 — higher, 2.01 fold
- B29 — higher, 2.02 fold
- B30 — higher, 2.43 fold
- B31 — higher, 2.29 fold
- B32 — higher, 2.16 fold
- B33 — higher, 1.98 fold
- B34 — higher, 2.34 fold
- B35 — higher, 2.57 fold
- B36 — higher, 3.28 fold
- B37 — higher, 2.57 fold
- B38 — higher, 1.87 fold
- B39 — higher, 2.41 fold
